Experimental data from the supplement of paper PMC12458215.
± gives the uncertainty stated by the source.

Tested on: HEK293T
Test: plasma membrane surface immunostaining intensity (anti-HA, deep receptor scanning) (arbitrary fluorescence units); higher = higher plasma membrane expression

| Sequence | plasma membrane surface immunostaining intensity (GPCR class: A (Olfactory)) | plasma membrane surface immunostaining intensity (GPCR class: A) |
| --- | --- | --- |
| MSGTNQSSVSEFLLLGLSRQPQQQHLLFVFFLSMYLATVLGNLLIILSVSIDSCLHTPMYFFLSNLSFVDICFSFTTVPKMLANHILETQTISFCGCLTQMYFVFMFVDMDNFLLAVMAYDHFVAVCHPLHYTAKMTHQLCALLVAGLWVVANLNVLLHTLLMAPLSFCADNAITHFFCDVTPLLKLSCSDTHLNEVIILSEGALVMITPFLCILASYMHITCTVLKVPSTKGRWKAFSTCGSHLAVVLLFYSTIIAVYFNPLSSHSAEKDTMATVLYTVVTPMLNPFIYSLRNRYLKGALKKVVGRVVFSV [OR1F1] | 278 ± 120 | – |
| MNECHYDKHMDFFYNRSNTDTVDDWTGTKLVIVLCVGTFFCLFIFFSNSLVIAAVIKNRKFHFPFYYLLANLAAADFFAGIAYVFLMFNTGPVSKTLTVNRWFLRQGLLDSSLTASLTNLLVIAVERHMSIMRMRVHSNLTKKRVTLLILLVWAIAIFMGAVPTLGWNCLCNISACSSLAPIYSRSYLVFWTVSNLMAFLIMVVVYLRIYVYVKRKTNVLSPHTSGSISRRRTPMKLMKTVMTVLGAFVVCWTPGLVVLLLDGLNCRQCGVQHVKRWFLLLALLNSVVNPIIYSYKDEDMYGTMKKMICCFSQENPERRPSRIPSTVLSRSDTGSQYIEDSISQGAVCNKSTS [LPAR3] | – | 5905 ± 32 |
| MNPDLDTGHNTSAPAHWGELKNANFTGPNQTSSNSTLPQLDITRAISVGLVLGAFILFAIVGNILVILSVACNRHLRTPTNYFIVNLAMADLLLSFTVLPFSAALEVLGYWVLGRIFCDIWAAVDVLCCTASILSLCAISIDRYIGVRYSLQYPTLVTRRKAILALLSVWVLSTVISIGPLLGWKEPAPNDDKECGVTEEPFYALFSSLGSFYIPLAVILVMYCRVYIVAKRTTKNLEAGVMKEMSNSKELTLRIHSKNFHEDTLSSTKAKGHNPRSSIAVKLFKFSREKKAAKTLGIVVGMFILCWLPFFIALPLGSLFSTLKPPDAVFKVVFWLGYFNSCLNPIIYPCSSKEFKRAFVRILGCQCRGRGRRRRRRRRRLGGCAYTYRPWTRGGSLERSQSRKDSLDDSGSCLSGSQRTLPSASPSPGYLGRGAPPPVELCAFPEWKAPGALLSLPAPEPPGRRGRHDSGPLFTFKLLTEPESPGTDGGASNGGCEAAADVANGQPGFKSNMPLAPGQF [ADRA1B] | – | 6200 ± 240 |
| MDISEGNKTLVTEFVLTGLTDRPWLHVLFFVVFLVVYLITMVGNLGLIVLIWNDPHLHMPMYLFLGGLAFSDACTSTSITPRMLVNFLDKTAMISLAECITQFYFFASSATTECFLLVMMAYDRYVAICNPLLYPVMMSNKLSAQLLSISYVIGFLHPLVHVSLLLRLTFCRFNIIHYFYCEILQLFKISCNGPSINALMIFIFGAFIQIPTLMTIIISYTRVLFDILKKKSEKGRSKAFSTCGAHLLSVSLYYGTLIFMYVRPASGLAEDQDKVYSLFYTIIIPLLNPFIYSLRNKKVMHALRRVIRK [OR5AC2] | 166 ± 48 | – |
| MELAVGNLSEGNASWPEPPAPEPGPLFGIGVENFVTLVVFGLIFALGVLGNSLVITVLARSKPGKPRSTTNLFILNLSIADLAYLLFCIPFQATVYALPTWVLGAFICKFIHYFFTVSMLVSIFTLAAMSVDRYVAIVHSRRSSSLRVSRNALLGVGCIWALSIAMASPVAYHQGLFHPRASNQTFCWEQWPDPRHKKAYVVCTFVFGYLLPLLLICFCYAKVLNHLHKKLKNMSKKSEASKKKTAQTVLVVVVVFGISWLPHHIIHLWAEFGVFPLTPASFLFRITAHCLAYSNSSVNPIIYAFLSENFRKAYKQVFKCHIRKDSHLSDTKESKSRIDTPPSTNCTHV [GALR1] | – | 6490 ± 69 |
| MLSTSRSRFIRNTNESGEEVTTFFDYDYGAPCHKFDVKQIGAQLLPPLYSLVFIFGFVGNMLVVLILINCKKLKCLTDIYLLNLAISDLLFLITLPLWAHSAANEWVFGNAMCKLFTGLYHIGYFGGIFFIILLTIDRYLAIVHAVFALKARTVTFGVVTSVITWLVAVFASVPGIIFTKCQKEDSVYVCGPYFPRGWNNFHTIMRNILGLVLPLLIMVICYSGILKTLLRCRNEKKRHRAVRVIFTIMIVYFLFWTPYNIVILLNTFQEFFGLSNCESTSQLDQATQVTETLGMTHCCINPIIYAFVGEKFRSLFHIALGCRIAPLQKPVCGGPGVRPGKNVKVTTQGLLDGRGKGKSIGRAPEASLQDKEGA [CCR2] | – | 137 ± 20 |
